Measured values published in US20140087995A1 (published 2014).
Numbered stars: 1 amine (or outer) side, 2 acyl side, 3 side chain; on linkers, the order of the positions; unused ones are H or OH. Bridge positions count the residues as written; N and C are the ends. Side chains are listed from the residue outwards. Ends that are not written are not given here. * marks the point of attachment. C20 diacid = O=C(O)CCCCCCCCCCCCCCCCCCC(=O)*; γGlu = O=C(O)[C@H](CCC(=O)[*:2])N[*:1]

T1: rat calcitonin receptor (rat, UniProt P32214 25-516)
T1 construct: whole, on cells; Used as membranes prepared from BHK tk'ts 13 cells transiently transfected with the rat calcitonin receptor (Assay VIII); also called rCTR; rat calcitonin (a) receptor
T1 sequence (looked up): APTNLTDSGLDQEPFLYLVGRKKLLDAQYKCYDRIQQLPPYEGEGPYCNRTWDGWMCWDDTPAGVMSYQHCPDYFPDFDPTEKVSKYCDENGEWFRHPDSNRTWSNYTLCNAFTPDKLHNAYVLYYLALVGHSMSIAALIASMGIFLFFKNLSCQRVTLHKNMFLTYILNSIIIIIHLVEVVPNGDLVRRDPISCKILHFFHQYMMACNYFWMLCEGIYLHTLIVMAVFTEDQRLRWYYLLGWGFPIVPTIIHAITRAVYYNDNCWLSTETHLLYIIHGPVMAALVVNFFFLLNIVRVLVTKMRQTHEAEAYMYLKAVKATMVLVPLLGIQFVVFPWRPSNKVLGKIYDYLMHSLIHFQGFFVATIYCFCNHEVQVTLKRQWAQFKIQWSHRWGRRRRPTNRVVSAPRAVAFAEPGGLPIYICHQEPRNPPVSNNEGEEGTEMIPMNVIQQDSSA

T2: rat amylin receptor (rat calcitonin receptor + rat RAMP 3) (rat, UniProt P32214 25-516; Q9JJ73 23-147)
T2 construct: whole, on cells; Used as membranes prepared from BHK tk'ts 13 cells transiently transfected with rat calcitonin receptor and rat RAMP 3 (Assay VI); also called rAmylin-R; rat amylin 3(a) receptor
T2 sequence (looked up) 1: T1 sequence (looked up)
T2 sequence (looked up) 2: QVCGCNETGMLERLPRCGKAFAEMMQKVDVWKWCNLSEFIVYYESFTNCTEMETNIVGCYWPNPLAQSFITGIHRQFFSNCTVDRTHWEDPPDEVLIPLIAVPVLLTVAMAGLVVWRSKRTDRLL

T3: human calcitonin receptor (human, UniProt P30988 25-474)
T3 construct: whole, on cells; Used as membranes prepared from a BHK tk'ts 13 cell line stably transfected with the human calcitonin receptor (Assay VII); also called hCTR; hCT
T3 sequence (looked up): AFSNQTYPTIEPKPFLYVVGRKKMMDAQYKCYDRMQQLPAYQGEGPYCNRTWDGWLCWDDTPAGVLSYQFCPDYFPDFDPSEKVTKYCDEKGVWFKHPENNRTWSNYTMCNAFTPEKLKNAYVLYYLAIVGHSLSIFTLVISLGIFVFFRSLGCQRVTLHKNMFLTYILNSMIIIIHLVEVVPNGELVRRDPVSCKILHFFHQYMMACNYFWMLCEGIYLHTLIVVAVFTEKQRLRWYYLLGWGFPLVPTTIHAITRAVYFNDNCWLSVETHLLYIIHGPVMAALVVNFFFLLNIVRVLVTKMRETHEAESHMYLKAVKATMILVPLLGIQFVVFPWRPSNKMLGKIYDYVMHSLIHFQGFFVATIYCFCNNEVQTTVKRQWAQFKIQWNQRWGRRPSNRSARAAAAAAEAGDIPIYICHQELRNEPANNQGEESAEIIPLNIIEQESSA

B1: N^ε1-[(4S)-4-carboxy-4-(19-carboxynonadecanoylamino)butanoyl]-[Arg17,Pro21,Pro27,His35]-h-amylin (peptide)
peptide: K([γGlu-C20 diacid])CNTATCATQRLANFLRHSSPNFGAIPSSTNVGSHTY-NH2
modifications: disulfide 2-7; N-terminus assumed
SMILES: CC[C@H](C)[C@H](NC(=O)[C@H](C)NC(=O)CNC(=O)[C@H](Cc1ccccc1)NC(=O)[C@H](CC(N)=O)NC(=O)[C@@H]1CCCN1C(=O)[C@H](CO)NC(=O)[C@H](CO)NC(=O)[C@H](Cc1c[nH]cn1)NC(=O)[C@H](CCCNC(=N)N)NC(=O)[C@H](CC(C)C)NC(=O)[C@H](Cc1ccccc1)NC(=O)[C@H](CC(N)=O)NC(=O)[C@H](C)NC(=O)[C@H](CC(C)C)NC(=O)[C@H](CCCNC(=N)N)NC(=O)[C@H](CCC(N)=O)NC(=O)[C@@H](NC(=O)[C@H](C)NC(=O)[C@@H]1CSSC[C@H](NC(=O)[C@@H](N)CCCCNC(=O)CC[C@H](NC(=O)CCCCCCCCCCCCCCCCCCC(=O)O)C(=O)O)C(=O)N[C@@H](CC(N)=O)C(=O)N[C@@H]([C@@H](C)O)C(=O)N[C@@H](C)C(=O)N[C@@H]([C@@H](C)O)C(=O)N1)[C@@H](C)O)C(=O)N1CCC[C@H]1C(=O)N[C@@H](CO)C(=O)N[C@@H](CO)C(=O)N[C@H](C(=O)N[C@@H](CC(N)=O)C(=O)N[C@H](C(=O)NCC(=O)N[C@@H](CO)C(=O)N[C@@H](Cc1c[nH]cn1)C(=O)N[C@H](C(=O)N[C@@H](Cc1ccc(O)cc1)C(N)=O)[C@@H](C)O)C(C)C)[C@@H](C)O
notes: Analogue of human amylin; also called compound 60
B2: N^ε1-[(4S)-4-carboxy-4-(19-carboxynonadecanoylamino)butanoyl]-[Glu14,Arg17,Pro21,Pro27,Arg35]-h-amylin (peptide)
peptide: K([γGlu-C20 diacid])CNTATCATQRLAEFLRHSSPNFGAIPSSTNVGSRTY-NH2
modifications: disulfide 2-7; N-terminus assumed
SMILES: CC[C@H](C)[C@H](NC(=O)[C@H](C)NC(=O)CNC(=O)[C@H](Cc1ccccc1)NC(=O)[C@H](CC(N)=O)NC(=O)[C@@H]1CCCN1C(=O)[C@H](CO)NC(=O)[C@H](CO)NC(=O)[C@H](Cc1c[nH]cn1)NC(=O)[C@H](CCCNC(=N)N)NC(=O)[C@H](CC(C)C)NC(=O)[C@H](Cc1ccccc1)NC(=O)[C@H](CCC(=O)O)NC(=O)[C@H](C)NC(=O)[C@H](CC(C)C)NC(=O)[C@H](CCCNC(=N)N)NC(=O)[C@H](CCC(N)=O)NC(=O)[C@@H](NC(=O)[C@H](C)NC(=O)[C@@H]1CSSC[C@H](NC(=O)[C@@H](N)CCCCNC(=O)CC[C@H](NC(=O)CCCCCCCCCCCCCCCCCCC(=O)O)C(=O)O)C(=O)N[C@@H](CC(N)=O)C(=O)N[C@@H]([C@@H](C)O)C(=O)N[C@@H](C)C(=O)N[C@@H]([C@@H](C)O)C(=O)N1)[C@@H](C)O)C(=O)N1CCC[C@H]1C(=O)N[C@@H](CO)C(=O)N[C@@H](CO)C(=O)N[C@H](C(=O)N[C@@H](CC(N)=O)C(=O)N[C@H](C(=O)NCC(=O)N[C@@H](CO)C(=O)N[C@@H](CCCNC(=N)N)C(=O)N[C@H](C(=O)N[C@@H](Cc1ccc(O)cc1)C(N)=O)[C@@H](C)O)C(C)C)[C@@H](C)O
notes: Analogue of human amylin; also called compound 51
B3: N^ε1-[(4S)-4-carboxy-4-(19-carboxynonadecanoylamino)butanoyl]-[His14,Arg17,Pro21,Pro27,His35]-h-amylin (peptide)
peptide: K([γGlu-C20 diacid])CNTATCATQRLAHFLRHSSPNFGAIPSSTNVGSHTY-NH2
modifications: disulfide 2-7; N-terminus assumed
SMILES: CC[C@H](C)[C@H](NC(=O)[C@H](C)NC(=O)CNC(=O)[C@H](Cc1ccccc1)NC(=O)[C@H](CC(N)=O)NC(=O)[C@@H]1CCCN1C(=O)[C@H](CO)NC(=O)[C@H](CO)NC(=O)[C@H](Cc1c[nH]cn1)NC(=O)[C@H](CCCNC(=N)N)NC(=O)[C@H](CC(C)C)NC(=O)[C@H](Cc1ccccc1)NC(=O)[C@H](Cc1c[nH]cn1)NC(=O)[C@H](C)NC(=O)[C@H](CC(C)C)NC(=O)[C@H](CCCNC(=N)N)NC(=O)[C@H](CCC(N)=O)NC(=O)[C@@H](NC(=O)[C@H](C)NC(=O)[C@@H]1CSSC[C@H](NC(=O)[C@@H](N)CCCCNC(=O)CC[C@H](NC(=O)CCCCCCCCCCCCCCCCCCC(=O)O)C(=O)O)C(=O)N[C@@H](CC(N)=O)C(=O)N[C@@H]([C@@H](C)O)C(=O)N[C@@H](C)C(=O)N[C@@H]([C@@H](C)O)C(=O)N1)[C@@H](C)O)C(=O)N1CCC[C@H]1C(=O)N[C@@H](CO)C(=O)N[C@@H](CO)C(=O)N[C@H](C(=O)N[C@@H](CC(N)=O)C(=O)N[C@H](C(=O)NCC(=O)N[C@@H](CO)C(=O)N[C@@H](Cc1c[nH]cn1)C(=O)N[C@H](C(=O)N[C@@H](Cc1ccc(O)cc1)C(N)=O)[C@@H](C)O)C(C)C)[C@@H](C)O
notes: Analogue of human amylin; also called compound 66
B4: N^ε1-[(4S)-4-carboxy-4-(19-carboxynonadecanoylamino)butanoyl]-[His14,Arg17,Pro21,Pro27,Pro31]-h-amylin (peptide)
peptide: K([γGlu-C20 diacid])CNTATCATQRLAHFLRHSSPNFGAIPSSTPVGSNTY-NH2
modifications: disulfide 2-7; N-terminus assumed
SMILES: CC[C@H](C)[C@H](NC(=O)[C@H](C)NC(=O)CNC(=O)[C@H](Cc1ccccc1)NC(=O)[C@H](CC(N)=O)NC(=O)[C@@H]1CCCN1C(=O)[C@H](CO)NC(=O)[C@H](CO)NC(=O)[C@H](Cc1c[nH]cn1)NC(=O)[C@H](CCCNC(=N)N)NC(=O)[C@H](CC(C)C)NC(=O)[C@H](Cc1ccccc1)NC(=O)[C@H](Cc1c[nH]cn1)NC(=O)[C@H](C)NC(=O)[C@H](CC(C)C)NC(=O)[C@H](CCCNC(=N)N)NC(=O)[C@H](CCC(N)=O)NC(=O)[C@@H](NC(=O)[C@H](C)NC(=O)[C@@H]1CSSC[C@H](NC(=O)[C@@H](N)CCCCNC(=O)CC[C@H](NC(=O)CCCCCCCCCCCCCCCCCCC(=O)O)C(=O)O)C(=O)N[C@@H](CC(N)=O)C(=O)N[C@@H]([C@@H](C)O)C(=O)N[C@@H](C)C(=O)N[C@@H]([C@@H](C)O)C(=O)N1)[C@@H](C)O)C(=O)N1CCC[C@H]1C(=O)N[C@@H](CO)C(=O)N[C@@H](CO)C(=O)N[C@H](C(=O)N1CCC[C@H]1C(=O)N[C@H](C(=O)NCC(=O)N[C@@H](CO)C(=O)N[C@@H](CC(N)=O)C(=O)N[C@H](C(=O)N[C@@H](Cc1ccc(O)cc1)C(N)=O)[C@@H](C)O)C(C)C)[C@@H](C)O
notes: Analogue of human amylin; also called compound 62
B5: N^ε1-[(4S)-4-carboxy-4-(19-carboxynonadecanoylamino)butanoyl]-[His14,Arg17,Pro21,Pro27,His34]-h-amylin (peptide)
peptide: K([γGlu-C20 diacid])CNTATCATQRLAHFLRHSSPNFGAIPSSTNVGHNTY-NH2
modifications: disulfide 2-7; N-terminus assumed
SMILES: CC[C@H](C)[C@H](NC(=O)[C@H](C)NC(=O)CNC(=O)[C@H](Cc1ccccc1)NC(=O)[C@H](CC(N)=O)NC(=O)[C@@H]1CCCN1C(=O)[C@H](CO)NC(=O)[C@H](CO)NC(=O)[C@H](Cc1c[nH]cn1)NC(=O)[C@H](CCCNC(=N)N)NC(=O)[C@H](CC(C)C)NC(=O)[C@H](Cc1ccccc1)NC(=O)[C@H](Cc1c[nH]cn1)NC(=O)[C@H](C)NC(=O)[C@H](CC(C)C)NC(=O)[C@H](CCCNC(=N)N)NC(=O)[C@H](CCC(N)=O)NC(=O)[C@@H](NC(=O)[C@H](C)NC(=O)[C@@H]1CSSC[C@H](NC(=O)[C@@H](N)CCCCNC(=O)CC[C@H](NC(=O)CCCCCCCCCCCCCCCCCCC(=O)O)C(=O)O)C(=O)N[C@@H](CC(N)=O)C(=O)N[C@@H]([C@@H](C)O)C(=O)N[C@@H](C)C(=O)N[C@@H]([C@@H](C)O)C(=O)N1)[C@@H](C)O)C(=O)N1CCC[C@H]1C(=O)N[C@@H](CO)C(=O)N[C@@H](CO)C(=O)N[C@H](C(=O)N[C@@H](CC(N)=O)C(=O)N[C@H](C(=O)NCC(=O)N[C@@H](Cc1c[nH]cn1)C(=O)N[C@@H](CC(N)=O)C(=O)N[C@H](C(=O)N[C@@H](Cc1ccc(O)cc1)C(N)=O)[C@@H](C)O)C(C)C)[C@@H](C)O
notes: Analogue of human amylin; also called compound 81

Molecular target: T1, rat calcitonin receptor
Experiment: IC50 on rat CTR divided by IC50 on rat amylin receptor (Assays VIII/VI)

Binder | Ratio rCT/rAmylin binding
B1 | 122
B2 | 119
B3 | 35.8
B4 | 42.8
B5 | 42.9

Molecular target: T2, rat amylin receptor (rat calcitonin …)
Experiment: SPA competition with 125I-rat amylin, membranes of BHK cells with rat CTR + rat RAMP3 (Assay VI)

Binder | IC50 [nM]
B1 | 0.215
B2 | 0.523
B3 | 0.581
B4 | 0.42
B5 | 1.42

Molecular target: T3, human calcitonin receptor
Experiment: IC50 on human CTR divided by IC50 on human amylin receptor (Assays VII/V)
Summary of the method: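 Membranes (35 ng/μL final) + SPA beads, 50 mM Hepes pH 7.4 buffer with 1 mM CaCl2, 5 mM MgCl₂, 0.1% OA, 0.02% Tween20; 120 min, 25° C, shaking; centrifuged, counted; IC₅₀ by one-site binding competition.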

Binder | Ratio hCT/hAmylin binding
B1 | 45.2
B2 | 37.5
B3 | 45.5
B4 | 63
B5 | 87.2

Molecular target: T1, rat calcitonin receptor
Experiment: SPA competition with 125I-calcitonin, membranes of BHK cells with rat CTR (Assay VIII)

Binder | IC50 [nM]
B1 | 26.3
B2 | 62
B3 | 20.8
B4 | 18
B5 | 61.1
